Measurements taken from patent publication US20050064539A1.

Target: mannose-6-phosphate receptor (human (cultured skin fibroblasts from a Fabry disease patient)) (UniProt O00264)
Experiment: cell-based or functional assay

Sequence of UniProt O00264 (O00264 whole entry): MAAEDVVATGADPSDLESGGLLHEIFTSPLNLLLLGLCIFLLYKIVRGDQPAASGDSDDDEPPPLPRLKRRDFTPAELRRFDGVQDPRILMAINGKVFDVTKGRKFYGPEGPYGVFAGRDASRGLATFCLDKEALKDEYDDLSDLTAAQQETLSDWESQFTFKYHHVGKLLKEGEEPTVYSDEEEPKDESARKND

- α-galactosidase activity in the cell extract of Fabry patient-derived fibroblasts 18 hours after adding enzyme at 1 µg/ml (uptake experiment): 3 fold
Substance: mannosidase-treated α-galactosidase (human α-galactosidase produced by S. cerevisiae strain HPY21G, treated with Cellulomonas SO-5-derived α-mannosidase) (from UniProt P06280 32-429) (enzyme)
